# Laboratory results published in FireProtDB (doi:10.1016/j.jmb.2005.09.061).
# Where “and” joins values, the source holds several entries; their conditions need not be identical. Identical values can stand only once.
# B1: Alpha-lactalbumin, P00712 (parent)
# chain: MMSFVSLLLVGILFHATQAEQLTKCEVFQKLKDLKDYGGVSLPEWVCTAFHTSGYDTQAIVQNNDSTEYGLFQINNKIWCKDDQNPHSRNICNISCDKFLDDDLTDDIVCAKKILDKVGINYWLAHKALCSEKLDQWLCEKL
# Variants of: B1
# Settings: Capra hircus; pH 7; Thermal; CD; sodium cacodylate 50 mM; NaCl 50 mM; reversible: Yes; structure 1HFY; whole UniProt chain shown
Variant,Tm,"change of melting temperature, mutant - wild type (higher = more stable)",heat capacity change of unfolding,unfolding enthalpy (van 't Hoff)
MMSFVSLLLVGILFHATQAEQLTKCEVFQKLKDLKDYGGVSLPEWVCTAFHTSGYDAQAIVQNNDSTEYGLFQINNKIWCKDDQNPHSRNICNISCDKFLDDDLTDDIVCAKKILDKVGINYWLAHKALCSEKLDQWLCEKL [T57A],59 °C and 54.1 °C,-6.8 °C and -4.9 °C,1.8 kcal/mol/K,68.8 kcal/mol and 62.5 kcal/mol
